Experimental data as given in article PMC8207216.

Molecular target: APE1 wild type (human) (UniProt P27695)
Assay: EMSA
Conditions: 1 mM EDTA (no catalysis); apparent KD; N at position 16 of strand 1 = abasic ribonucleotide analog (tetrahydrofuran with 2'-OH); EMSA: 2 nM DNA, 0-20 nM APE1, 50 mM Tris pH 8, 1 mM EDTA, 0.2 mg/ml BSA, 1 mM DTT, 5% sucrose, 30 min on ice, 10% native gel

Chain of UniProt P27695 (P27695 whole entry): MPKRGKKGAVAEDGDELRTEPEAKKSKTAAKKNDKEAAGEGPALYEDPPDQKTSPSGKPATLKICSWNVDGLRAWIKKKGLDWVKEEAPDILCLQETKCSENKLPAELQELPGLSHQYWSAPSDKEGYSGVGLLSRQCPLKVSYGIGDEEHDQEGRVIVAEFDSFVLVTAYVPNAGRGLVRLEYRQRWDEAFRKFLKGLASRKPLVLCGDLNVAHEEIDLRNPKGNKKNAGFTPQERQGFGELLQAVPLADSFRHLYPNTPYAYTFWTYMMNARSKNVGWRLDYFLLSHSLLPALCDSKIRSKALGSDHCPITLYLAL

“CGTTCGCTGATGCGCNCGACGGATCCGCAT / ATGCGGATCCGTCGAGCGCATCAGCGAACG [30-mer rAP DNA]” showed a Kd of 2.9 nM.
